Experiments:
[1] = target: RDPrHIV mutant glycoprotein (feline endogenous virus RD114)
[2] = target: CH-296 retronectin fragment (Homo sapiens (Human)) (UniProt P02751)

MLV viral core protease (enzyme)
infectivity of MLV pseudotyped vectors on TE671 cells [1]: < 20 fold

RD114/TR chimeric glycoprotein
transduction efficiency of human CD34+ cells on retronectin-coated plates against no retronectin [2]: 10 fold

Source: patent publication US8338168B2
